How the values were obtained:
IscS (Escherichia coli) = IscS (Escherichia coli) (UniProt P0A6B7); assay: native mass spectrometry; conditions: cited from earlier work
[1] = target: R220/223/225E triple variant of IscS (E. coli) (UniProt P0A6B7); assay: native MS; ESI-MS under non-denaturing conditions of IscS alone, 250 mM ammonium acetate, pH 8.0
[2] = target: L-cysteine desulfurase IscS (E. coli) (UniProt P0A6B7); assay: native MS; ~8 µM IscS (~4 µM dimeric IscS) titrated with increasing TusA in 250 mM ammonium acetate, pH 8.0; fractional intensities fitted to a sequential binding model (Dynafit)
[3] = target: L-cysteine desulfurase IscS (E. coli) (UniProt P0A6B7)

Row | Substance | Kd [2] [µM] | other results
1 | IscU (from UniProt P0ACD4) |  | Kd (IscS (Escherichia coli)): 3 µM
2 | R220/223/225E triple variant of IscS (from UniProt P0A6B7 1-404) (enzyme) |  | stoichiometry N [1]: 2
3 | TusA (from UniProt P0A890 1-81) (natural protein) | 8 | L-cysteine desulfurase activity of IscS (methylene blue assay) after addition of TusA [3]: 3 fold
4 | TusA C19S variant (from UniProt P0A890 1-81) (natural protein) | 8 | 
5 | TusA C56A variant (from UniProt P0A890 1-81) (natural protein) | 8 | 

Source: paper PMC11302665
